{
  "source": "patent US20130136736A1",
  "about": "(Ablynx, published 2013)",
  "target": "T1, human von Willebrand Factor (vWF) (human, UniProt P04275 764-2813)",
  "T1 construct": "Multimeric plasma protein; The species of the vWF on the BIACORE chip and ELISA plates is not restated there; also called vWF (Red Cross); human vWF",
  "assay": "ELISA on coated vWF: supernatant of a 200 µg/ml nanobody solution heated for 1 h at RT to 90 °C, dilution series, OD 405 nm",
  "data": [
    {"binder": "12A2H4 (VHH, Humanised 12A2, monovalent) VHH: EVQLVESGGGLVQPGGSLRLSCAASGRTFSYNPMGWFRQAPGKGRELVAAISRTGGSTYYPDSVEGRFTISRDNAKRSVYLQMNSLRAEDTAVYYCAAAGVRAEDGRVRTLPSEYTFWGQGTQVTVSS", "values": [
      {"measurement": "binding result", "result": "binds"}
    ]}
  ]
}
